According to the supplement of paper PMC10126150:
± gives the standard deviation of the averaged measurements.

test system: ATP; assay: switch fluorescence ratio, 500 uM ATP over buffer (Cy3 cluster intensity, sum of 5 cycles each) (fold (ratio)); higher = stronger signal-on switching upon ATP binding; sequences stand for … in TCGTCGGCAGCGTCAGATGTGTATAAGAGACAGTTTTTTTTTTTTTTTTTTTTTTTTT…TC; conditions: aptamer strand: ATP DNA aptamer (quencher-CACCTGGGGGAGTATTGCGGAGGAAGG + anchor), 100 nM annealed; ATP concentration: 500 uM
Summary of the method: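 Values give the fluorescence ratio for each switch-domain sequence, averaged from per-cluster ratios of summed target-cycle to summed buffer-cycle Cy3 intensity. The Cy3-labelled switching-strand clusters sat on a modified Illumina MiSeq flow-cell, were annealed to 100 nM quencher-labelled ATP aptamer, and were imaged in selection buffer, then after 15 min with 500 uM ATP at 22 °C. Five cycles ran with NaOH stripping and re-annealing between them, and clusters outside 100-1000 RFU were excluded.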
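Further: ATP exposure 15 min at 22 °C before imaging.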

| Sequence | switch fluorescence ratio |
| --- | --- |
| ATATCCTTGG | 0.984 ± 0.026 |
| GCCACAGCTG | 1 ± 0.013 |
| CCTTTCAGGA | 0.9993 ± 0.0015 |
| AGGCAGAACG | 1.048 ± 0.0058 |
| GTTAGAGGTT | 0.999 ± 0.03 |
| GATTACAGGG | 0.957 ± 0.038 |
| TAGGGAAAGA | 1 ± 0.014 |
| ATCGGGTGCG | 0.981 ± 0.022 |
| GGGTTAAGTT | 1 ± 0.027 |
| AAATCGAGGA | 1.018 ± 0.0096 |
| TGGTAGTGGG | 0.98 ± 0.026 |
| TTTTAAGCGG | 0.999 ± 0.015 |
| TTTTTGCCAC | 1 ± 0.043 |
| GGTGTTGGTT | 1.008 ± 0.0093 |
| ACGTTGTACT | 1.14 ± 0.037 |
| TCAGAGCATC | 1.96 ± 1.1 |
| CGAGGGACTG | 0.984 ± 0.0099 |
| TAATCTTGGG | 1 ± 0.011 |
| GTTTGTTGGC | 0.967 ± 0.056 |
| CCGGTCAGTG | 1.066 ± 0.0088 |
| CGGATGTTAC | 1.171 ± 0.0093 |
| GAAAGGGGCT | 0.993 ± 0.031 |
| GAATGGGGA | 0.986 ± 0.021 |
| TTCCGGGCCC | 1.16 ± 0.041 |
| GAGATAGTTT | 0.995 ± 0.042 |
| AATGAAGGGG | 0.987 ± 0.031 |

| Sequence | switch fluorescence ratio |
| --- | --- |
| TGGCATCTTT | 1.02 ± 0.018 |
| CCAATGGTGG | 1.01 ± 0.043 |
| TATACCTAGG | 1.003 ± 0.0065 |
| TATATCAATC | 0.991 ± 0.013 |
| TTATTTTCGT | 0.973 ± 0.018 |
| AGGGAGGATT | 0.965 ± 0.034 |
| TCGTTTTAGT | 0.985 ± 0.014 |
| AAGTGGCCGG | 0.961 ± 0.074 |
| GTGGTAGTTC | 0.983 ± 0.015 |
| AATCTTGGTT | 0.959 ± 0.032 |
| TTGCATGTTG | 0.9886 ± 0.0033 |
| TTAGTGTCTT | 0.976 ± 0.025 |
| GGGAGATTTT | 1.01 ± 0.035 |
| TAAGACTGAT | 1.016 ± 0.0019 |
| AAGTCCGGGA | 0.998 ± 0.035 |
| TTTCAAAGGC | 1.17 ± 0.2 |
| TGGGTGTGGA | 1.01 ± 0.051 |
| GGTCGGTATT | 1.08 ± 0.12 |
| TCCCATGTTT | 0.963 ± 0.032 |
| GGTTTAATGG | 1.01 ± 0.018 |
| GCAATAATTA | 1.1 ± 0.046 |
| TTGTTAGGCT | 1.03 ± 0.041 |
| AAAACTCTGT | 1.04 ± 0.015 |
| GCCTAGGGTT | 1 ± 0.023 |
| TGGATTACGT | 1.018 ± 0.0032 |
| GTGGAAAAGG | 0.966 ± 0.046 |

| Sequence | switch fluorescence ratio |
| --- | --- |
| AATAACTGGT | 1.04 ± 0.028 |
| AGACAACGGC | 1.02 ± 0.03 |
| AGTGCTGATG | 0.998 ± 0.02 |
| GACGGTTGTG | 1 ± 0.012 |
| CGTATTAGGT | 0.9553 ± 0.0086 |
| GATTAGGCGG | 0.982 ± 0.066 |
| CGTACGTCAT | 1.08 ± 0.04 |
| TTCATTTTAG | 1.02 ± 0.031 |
| TTCAGATACC | 1.04 ± 0.017 |
| TGCAGTGTGC | 1.01 ± 0.015 |
| ATACCGGATT | 1.01 ± 0.046 |
| TCAGCAATCG | 2.57 ± 0.026 |
| AAATATTGTG | 0.982 ± 0.023 |
| GGGTTAATCT | 0.9983 ± 0.0016 |
| GTGGTGCTAG | 0.97206 ± 1.9e-05 |
| GAGGGGCGCC | 0.987 ± 0.016 |
| GGCAGGGGGT | 1.04 ± 0.088 |
| CCTTATGGGG | 1 ± 0.023 |
| ACGGCAACAT | 1.31 ± 0.1 |
| GGGAAAATGT | 1.02 ± 0.038 |
| AATGGGGGCG | 0.9633 ± 0.0089 |
| TTATATATGC | 0.986 ± 0.028 |
| GAGGGGAAAA | 0.99 ± 0.04 |
| GGATGATGCC | 0.986 ± 0.033 |
| CCAAAATTCC | 1.12 ± 0.034 |
| AAACAAGCTT | 1.02 ± 0.021 |

| Sequence | switch fluorescence ratio |
| --- | --- |
| GAGGGATGTA | 1.01 ± 0.022 |
| AAATACCGGC | 1.1 ± 0.16 |
| ATAGCGGAAT | 1.007 ± 0.01 |
| GGGGGCATTG | 0.9933 ± 0.0084 |
| TGCTGTGTAC | 1.084 ± 0.0095 |
| AAAGTGAGGT | 1.01 ± 0.017 |
| ATACTATCTA | 1.03 ± 0.017 |
| AACAAAGAGA | 1.02 ± 0.026 |
| CCAGAGGTGT | 1.6 ± 0.064 |
| GCTAGTATG | 0.9954 ± 0.0072 |
| GAAAATTATA | 1.02 ± 0.035 |
| GAGCTTCTCT | 1.0194 ± 9.9e-05 |
| GGAAAAAGGA | 0.9423 ± 0.0081 |
| ATTTCTCGGT | 1.07 ± 0.066 |
| TGGTAGGGGC | 1.02 ± 0.057 |
| TCGACTGGGG | 1 ± 0.034 |
| AGGGTGGAAT | 1.068 ± 0.01 |
| ATGATATTTT | 0.986 ± 0.027 |
| AAGCGGGGGG | 1.03 ± 0.015 |
| GATGGGGTGT | 1.03 ± 0.027 |
| CTGTGTTGTG | 0.998 ± 0.015 |
| GGTATATGTT | 1.01 ± 0.015 |
| CATTCAGTTC | 1 ± 0.058 |
| GTGAAAGGGA | 1.03 ± 0.017 |
| CAGTTGTTTT | 1.02 ± 0.034 |
| ATAGTGGACA | 0.9867 ± 0.0019 |

| Sequence | switch fluorescence ratio |
| --- | --- |
| GGTTAGCGG | 0.9599 ± 0.0026 |
| GGGCGGGATT | 1 ± 0.059 |
| TCACTCATAT | 1.02 ± 0.013 |
| TCGTGGTTTA | 0.994 ± 0.021 |
| TAGTCAGAGG | 1.01 ± 0.012 |
| CCAGGCAAGC | 2.46 ± 1.3 |
| ATAGGGATTC | 1.02 ± 0.038 |
| ACCTTGAGAG | 1 ± 0.011 |
| TGTTTGTTAC | 1.011 ± 0.0076 |
| TTCTGTATTG | 1.03 ± 0.035 |
| AGGCCTGCGG | 1.05 ± 0.033 |
| GCGAATTAGG | 0.9719 ± 0.0032 |
| TATCTGGGGC | 1.04 ± 0.025 |
| TGAATAAAGT | 0.978 ± 0.021 |
| TTTTTGAAGT | 1.01 ± 0.027 |
| GGAATGGGTG | 1 ± 0.057 |
| TAGTGGGTCC | 1.02 ± 0.037 |
| GCGGGTTAAG | 0.9832 ± 0.0023 |
| CAGTCTGGGG | 0.964 ± 0.012 |
| TGATCTGGGG | 1.01 ± 0.033 |
| GCTCTATCAC | 1.04 ± 0.035 |
| AAACACGGTG | 1.19 ± 0.17 |
| TTTGGGCTGG | 1.01 ± 0.06 |
| GCGGGTGGCT | 1.03 ± 0.019 |
| GCATTGTGTT | 0.991 ± 0.052 |
| ATTCGTTGTT | 0.997 ± 0.01 |

| Sequence | switch fluorescence ratio |
| --- | --- |
| TGCTCTGGGG | 0.996 ± 0.015 |
| GATGTGTGCG | 0.897 ± 0.13 |
| GCAGTATACC | 1.15 ± 0.019 |
| CTCTGAGCGG | 1.03 ± 0.048 |
| TGTATCATGT | 0.99 ± 0.037 |
| AAGGCAAGAT | 1.04 ± 0.064 |
| GCAAGTTTCA | 0.996 ± 0.034 |
| CAATGGGACC | 1.011 ± 0.0013 |
| GATTCAGGAG | 1 ± 0.032 |
| AATCATGTAG | 1.01 ± 0.011 |
| AGGATATATT | 0.976 ± 0.0099 |
| GTAGGGGCTG | 1 ± 0.074 |
| CTTAGCGGGA | 1.02 ± 0.025 |
| AGGAGGGGTC | 1.01 ± 0.048 |
| TAGTTGATGT | 1.026 ± 0.008 |
| TTGGTCCGGT | 0.988 ± 0.018 |
| AGTCGGCGGA | 0.998 ± 0.014 |
| ATTGGTTTGG | 1.032 ± 0.01 |
| CAATGTGACG | 1.03 ± 0.052 |
| TGTTACGATA | 1.1181 ± 0.00041 |
| CGGTCCGGTT | 0.9862 ± 0.0018 |
| TGGGTTATGA | 0.9941 ± 0.0084 |
| GTGGTTGGCC | 1.011 ± 0.0027 |
